This note sets out measurements from EP2644619A1 (Spiber Technologies AB, dated 2013).

For series [1], the target named is NT (wild type N-terminal fragment of Euprosthenops australis major spidroin 1) (Euprosthenops australis). In words: tryptophan fluorescence, 5 uM protein, between pH 7 and pH 6; the filing uses it as a probe of dimerisation.
Series [2] concerns the molecule itself. In words: comparative structural studies, pH lowered from 7 to 6 (self-association).

B1: NT (wild type N-terminal fragment of Euprosthenops australis major spidroin 1) (protein)
chain: GSGNSHTTPWTNPGLAENFMNSFMQGLSSMPGFTASQLDDMSTIAQSMVQSIQSLAAQGRTSPNKLQALNMAFASSMAEIAASEEGGGSLSTKTSSIASAMSNAFLQTTGVVNQPFINEITQLVSMFAQAGMNDVSA
B1: the red-shift in fluorescence emission in series [1] worked out at 15 nm.

B2: NT^A72R (other)
chain: GSGNSHTTPWTNPGLAENFMNSFMQGLSSMPGFTASQLDDMSTIAQSMVQSIQSLAAQGRTSPNKLQALNMRFASSMAEIAASEEGGGSLSTKTSSIASAMSNAFLQTTGVVNQPFINEITQLVSMFAQAGMNDVSA
notes: also called mutated NT; mutant NT
Regarding B2, in series [2], the binding result is given as “no binding”.
